Patent US20120172293A1 (Takeda / Millennium, published 2012)
Non-standard residues stand in square brackets, D forms with d. *: point of attachment. X11 = ((1S)-1-carboxy-3-methylbutyl)carbamoyl, CC(C)C[C@H](NC(=O)*)C(=O)O; X10 = Tetrahydro‑2H‑pyran‑4‑yl‑carbamoyl, O=C(NC1CCOCC1)*; Phe(3-Me) = Cc1cccc(C[C@H](N)C(=O)O)c1; tBuAla = CC(C)(C)C[C@H](N)C(=O)O; Cha = N[C@@H](CC1CCCCC1)C(=O)O; Isobutyryl = CC(C)C(=O)*; Abu = CC[C@H](N)C(=O)O; Aib = CC(C)(N)C(=O)O; Bz = O=C(c1ccccc1)*

T1: human Y2 receptor (human, UniProt P49146 1-381)
T1 sequence (looked up): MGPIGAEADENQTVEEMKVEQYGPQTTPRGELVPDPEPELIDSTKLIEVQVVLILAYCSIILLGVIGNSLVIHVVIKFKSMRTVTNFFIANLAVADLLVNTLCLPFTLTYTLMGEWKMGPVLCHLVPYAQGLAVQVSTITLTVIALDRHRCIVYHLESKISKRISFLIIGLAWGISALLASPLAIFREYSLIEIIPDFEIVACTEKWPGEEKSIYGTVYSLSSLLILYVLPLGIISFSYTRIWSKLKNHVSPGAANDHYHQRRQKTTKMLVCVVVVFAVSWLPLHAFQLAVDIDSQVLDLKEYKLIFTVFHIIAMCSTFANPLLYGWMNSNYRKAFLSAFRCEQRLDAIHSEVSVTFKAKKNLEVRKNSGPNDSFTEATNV

B1: Isobutanoyl-[Abu26, Gly27, Cha28,36, Aib31]-PYY(25-36) (peptide)
peptide: Isobutyryl-R[Abu]G[Cha]NL[Aib]TRQR[Cha]-NH2
SMILES: CC[C@H](NC(=O)[C@H](CCCNC(=N)N)NC(=O)C(C)C)C(=O)NCC(=O)N[C@@H](CC1CCCCC1)C(=O)N[C@@H](CC(N)=O)C(=O)N[C@@H](CC(C)C)C(=O)NC(C)(C)C(=O)N[C@H](C(=O)N[C@@H](CCCNC(=N)N)C(=O)N[C@@H](CCC(N)=O)C(=O)N[C@@H](CCCNC(=N)N)C(=O)N[C@@H](CC1CCCCC1)C(N)=O)[C@@H](C)O
B2: Benzoyl-[Ser26, Cha27,28,36, Aib31]-PYY(25-36) (peptide)
peptide: Bz-RS[Cha][Cha]NL[Aib]TRQR[Cha]-NH2
SMILES: CC(C)C[C@H](NC(=O)[C@H](CC(N)=O)NC(=O)[C@H](CC1CCCCC1)NC(=O)[C@H](CC1CCCCC1)NC(=O)[C@H](CO)NC(=O)[C@H](CCCNC(=N)N)NC(=O)c1ccccc1)C(=O)NC(C)(C)C(=O)N[C@H](C(=O)N[C@@H](CCCNC(=N)N)C(=O)N[C@@H](CCC(N)=O)C(=O)N[C@@H](CCCNC(=N)N)C(=O)N[C@@H](CC1CCCCC1)C(N)=O)[C@@H](C)O
B3: Isobutanoyl-[Abu26,27, Cha28,36, Aib31]-PYY(25-36) (peptide)
peptide: Isobutyryl-R[Abu][Abu][Cha]NL[Aib]TRQR[Cha]-NH2
SMILES: CC[C@H](NC(=O)[C@H](CCCNC(=N)N)NC(=O)C(C)C)C(=O)N[C@@H](CC)C(=O)N[C@@H](CC1CCCCC1)C(=O)N[C@@H](CC(N)=O)C(=O)N[C@@H](CC(C)C)C(=O)NC(C)(C)C(=O)N[C@H](C(=O)N[C@@H](CCCNC(=N)N)C(=O)N[C@@H](CCC(N)=O)C(=O)N[C@@H](CCCNC(=N)N)C(=O)N[C@@H](CC1CCCCC1)C(N)=O)[C@@H](C)O
B4: Tetrahydro-2H-pyran-4-yl-carbamoyl-[D-Pro24, Cha27,36, Leu(Me)28, Lys30, Aib31]-PYY(23-36) (peptide)
peptide: X10-S[dP]RH[Cha][tBuAla]NK[Aib]TRQR[Cha]-NH2
SMILES: C[C@@H](O)[C@H](NC(=O)C(C)(C)NC(=O)[C@H](CCCCN)NC(=O)[C@H](CC(N)=O)NC(=O)[C@H](CC(C)(C)C)NC(=O)[C@H](CC1CCCCC1)NC(=O)[C@H](Cc1c[nH]cn1)NC(=O)[C@H](CCCNC(=N)N)NC(=O)[C@H]1CCCN1C(=O)[C@H](CO)NC(=O)NC1CCOCC1)C(=O)N[C@@H](CCCNC(=N)N)C(=O)N[C@@H](CCC(N)=O)C(=O)N[C@@H](CCCNC(=N)N)C(=O)N[C@@H](CC1CCCCC1)C(N)=O
notes: also called compound No. 229
B5: Ac-[D-Pro24, Gln26, Cha27,36, Aib28,31, Lys30]-PYY(23-36) (peptide)
peptide: Ac-S[dP]RQ[Cha][Aib]NK[Aib]TRQR[Cha]-NH2
SMILES: CC(=O)N[C@@H](CO)C(=O)N1CCC[C@@H]1C(=O)N[C@@H](CCCNC(=N)N)C(=O)N[C@@H](CCC(N)=O)C(=O)N[C@@H](CC1CCCCC1)C(=O)NC(C)(C)C(=O)N[C@@H](CC(N)=O)C(=O)N[C@@H](CCCCN)C(=O)NC(C)(C)C(=O)N[C@H](C(=O)N[C@@H](CCCNC(=N)N)C(=O)N[C@@H](CCC(N)=O)C(=O)N[C@@H](CCCNC(=N)N)C(=O)N[C@@H](CC1CCCCC1)C(N)=O)[C@@H](C)O
notes: also called compound No. 221
B6: Ac-[Glu23, D-Pro24, Cha27,28, Lys30, Aib31, Phe(3Me)36]-PYY(23-36) (peptide)
peptide: Ac-E[dP]RH[Cha][Cha]NK[Aib]TRQR[Phe(3-Me)]-NH2
SMILES: CC(=O)N[C@@H](CCC(=O)O)C(=O)N1CCC[C@@H]1C(=O)N[C@@H](CCCNC(=N)N)C(=O)N[C@@H](Cc1c[nH]cn1)C(=O)N[C@@H](CC1CCCCC1)C(=O)N[C@@H](CC1CCCCC1)C(=O)N[C@@H](CC(N)=O)C(=O)N[C@@H](CCCCN)C(=O)NC(C)(C)C(=O)N[C@H](C(=O)N[C@@H](CCCNC(=N)N)C(=O)N[C@@H](CCC(N)=O)C(=O)N[C@@H](CCCNC(=N)N)C(=O)N[C@@H](Cc1cccc(C)c1)C(N)=O)[C@@H](C)O
notes: also called compound No. 259
B7: [(1S)-1-carboxy-3-methylbutyl]carbamoyl-[Glu23, D-Pro24, Cha27,28,36, Lys30, Aib31]-PYY(23-36) (peptide)
peptide: X11-E[dP]RH[Cha][Cha]NK[Aib]TRQR[Cha]-NH2
SMILES: CC(C)C[C@H](NC(=O)N[C@@H](CCC(=O)O)C(=O)N1CCC[C@@H]1C(=O)N[C@@H](CCCNC(=N)N)C(=O)N[C@@H](Cc1c[nH]cn1)C(=O)N[C@@H](CC1CCCCC1)C(=O)N[C@@H](CC1CCCCC1)C(=O)N[C@@H](CC(N)=O)C(=O)N[C@@H](CCCCN)C(=O)NC(C)(C)C(=O)N[C@H](C(=O)N[C@@H](CCCNC(=N)N)C(=O)N[C@@H](CCC(N)=O)C(=O)N[C@@H](CCCNC(=N)N)C(=O)N[C@@H](CC1CCCCC1)C(N)=O)[C@@H](C)O)C(=O)O
notes: also called compound No. 254

target: human Y2 receptor (human) (UniProt P49146); test: cell-based or functional assay

GBA EC50 Ratio (vs PYY(3-36)), [35S]GTPγS | Binder
49 | B1
6 | B2
37 | B3

target: T1, human Y2 receptor; test: cell-based or functional assay

GBA EC50 Ratio ([35S]GTPγS binding) | Binder
0.5 EC50 compound/EC50 PYY(3-36) | B4
1.4 EC50 compound/EC50 PYY(3-36) | B5
0.93 EC50 compound/EC50 PYY(3-36) | B6
1.5 EC50 compound/EC50 PYY(3-36) | B7

target: human Y2 receptor (human) (UniProt P49146); test: RBA: [125I]-PYY displacement, hY2R/CHO membranes

IC50 Ratio (vs PYY(3-36)) | Binder
70 | B1
13 | B2
31 | B3

target: T1, human Y2 receptor; test: RBA: displacement of [125I]-PYY from hY2R/CHO membranes
Method: After incubation at room temperature for 60 minutes, the mixture was filtered through the cell harvester FilterMate (PerkinElmer) using UniFilter-96 GF/C treated with polyethylenimine (PEI) solution (20 mM Tris, 0.3% PEI, pH 7.4), and the filter was washed 3 times with a filtering buffer (50 mM Tris, 5 mM MgCl₂, 150 mM NaCl, 0.03% NaN₃, 0.05% CHAPS, pH 7.4). Thereafter, UniFilter-96 GF/C was dried in a mechanical drier for 1 hour, 15 μl of the liquid scintillator MicroScint O (PerkinElmer) was added to each well, and a measurement was taken using TopCount (PerkinElmer). The data obtained were analyzed using Prism to calculate the IC₅₀ value.

IC50 Ratio | Binder
0.45 IC50 compound/IC50 PYY(3-36) | B4
3.1 IC50 compound/IC50 PYY(3-36) | B5
1.1 IC50 compound/IC50 PYY(3-36) | B6
2.8 IC50 compound/IC50 PYY(3-36) | B7
